US20250277023A1 (published 2025)

T1: TIGIT (on CHO-TIGIT cells) (UniProt Q495A1 22-244)
T1 chain: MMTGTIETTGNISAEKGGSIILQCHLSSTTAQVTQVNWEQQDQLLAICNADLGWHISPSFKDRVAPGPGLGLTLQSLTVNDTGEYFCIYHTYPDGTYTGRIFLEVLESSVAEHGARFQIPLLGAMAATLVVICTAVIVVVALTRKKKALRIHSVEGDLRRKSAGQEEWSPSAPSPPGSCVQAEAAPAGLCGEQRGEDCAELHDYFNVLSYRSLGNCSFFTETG


How the values were obtained:
[1] = target: T2, PD-L1 (on CHO-PD-L1 cells) (UniProt Q9NZQ7 19-290); assay: FACS binding; Fig. 26
[2] = target: T1, TIGIT (on CHO-TIGIT cells); assay: FACS blocking of PVR binding to CHO-Tigit; Fig. 27
[3] = target: T1, TIGIT (on CHO-TIGIT cells); assay: FACS binding; Fig. 20
[4] = target: T2, PD-L1 (on CHO-PD-L1 cells); assay: FACS binding; Fig. 22
[5] = target: T2, PD-L1 (on CHO-PD-L1 cells); assay: FACS binding; Fig. 23
[6] = target: T2, PD-L1 (on CHO-PD-L1 cells); assay: FACS binding; Fig. 21

T2 sequence (Q9NZQ7 19-290): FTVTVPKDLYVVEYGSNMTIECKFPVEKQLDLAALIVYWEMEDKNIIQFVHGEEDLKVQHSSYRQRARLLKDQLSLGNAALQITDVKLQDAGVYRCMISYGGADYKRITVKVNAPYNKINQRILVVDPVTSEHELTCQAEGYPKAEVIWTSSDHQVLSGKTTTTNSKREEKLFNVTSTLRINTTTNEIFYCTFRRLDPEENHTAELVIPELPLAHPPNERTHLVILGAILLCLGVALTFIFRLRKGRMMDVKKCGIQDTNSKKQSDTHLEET

Row | Binder | EC50 [1] | EC50 [2] | EC50 [3] | EC50 [4] | EC50 [5] | EC50 [6]
1 | R1262: TIGIT VH-IL2Rα mutant-Fc/TIGIT VL-IL2 mutant/PD-L1_VH-hIgG1/PD-L1 VL-κ-Ig LC (bispecific antibody) chain 1: QVQLVQSGAEVKKPGSSVKVSCKASGYSFTSYWMNWVRQAPGQGLEWIGMIRPSDSETRLNQMFKDRVTITVDKSTSTAYMELSSLRSEDTAVYYCAGIHDYGHGAYWGQGTLVTVSSGGGGSGGGGSGGGGSGGGGCGELCDDDPPEIPHATFKAMAYKEGTMLNCECKRGFRRIKSGSLYMLCTGNSSHSSWDNQCQCTSSATRNTTKQVTPQPEEQKERKTTEMQSPMQPVDQASLPGHCREPPPWENEATERIYHFVVGQMVYYQCVQGYRALHRGPAESVCKMTHGKTRWTQPQLICTGEPKSSDKTHTCPPCPAPELLGGPSVFLFPPKPKDTLMISRTPEVTCVVVDVSHEDPEVKFNWYVDGVEVHNAKTKPREEQYNSTYRVVSVLTVLHQDWLNGKEYKCKVSNKALPAPIEKTISKAKGQPREPQVYTLPPSREEMTKNQVSLTCRVKGFYPSDIAVEWESNGQPENNYKTTPPVLKSDGSFFLASKLTVDKSRWQQGNVFSCSVMHEALHNHYTQKSLSLSPGK chain 2: not shown heavy: EVQLQESGPGLVKPSETLSLTCAVYGDSITSGYWNWIRKPPGKGLEYMGYISYTGSTYQNPSLKSRITFSRDTSKNQYYLKLSSVTAADTATYYCARSRAWIRTYFDYWGQGTLVTVSSASTKGPSVFPLAPSSKSTSGGTAALGCLVKDYFPEPVTVSWNSGALTSGVHTFPAVLQSSGLYSLSSVVTVPSSSLGTQTYICNVNHKPSNTKVDKRVEPKSCDKTHTCPPCPAPELLGGPSVFLFPPKPKDTLMISRTPEVTCVVVDVSHEDPEVKFNWYVDGVEVHNAKTKPREEQYNSTYRVVSVLTVLHQDWLNGKEYKCKVSNKALPAPIEKTISKAKGQPREPQVYTLPPSREEMTKNQVSLWCLVKGFYPSDIAVEWESNGQPENNYDTTPPVLDSDGSFFLYSDLTVDKSRWQQGNVFSCSVMHEALHNHYTQKSLSLSPGK light: EIVLTQSPDFQSVTPKEKVTITCSVSSSISSSNLHWYQQKPDQSPKLLIYGTSNLASGVPSRFSGSGSGTDFTLTINSLEAEDAATYYCQQWSSYPLTFGQGTKLEIKRTVAAPSVFIFPPSDEQLKSGTASVVCLLNNFYPREAKVQWKVDNALQSGNSQESVTEQDSKDSTYSLSSTLTLSKADYEKHKVYACEVTHQGLSSPVTKSFNRGEC | 2.64 nM | 50.4 nM | 11.3 nM | – | – | –
2 | R1115: TIGIT_VH_IL2RA/TIGIT_VL_IL2/PD-L1-Fab (bispecific antibody) chain 1: QVQLVQSGAEVKKPGSSVKVSCKASGYSFTSYWMNWVRQAPGQGLEWIGMIRPSDSETRLNQMFKDRVTITVDKSTSTAYMELSSLRSEDTAVYYCAGIHDYGHGAYWGQGTLVTVSSGGGGSGGGGSGGGGSGGGGSGELCDDDPPEIPHATFKAMAYKEGTMLNCECKRGFRRIKSGSLYMLCTGNSSHSSWDNQCQCTSSATRNTTKQVTPQPEEQKERKTTEMQSPMQPVDQASLPGHCREPPPWENEATERIYHFVVGQMVYYQCVQGYRALHRGPAESVCKMTHGKTRWTQPQLICTGEPKSSDKTHTCPPCPAPELLGGPSVFLFPPKPKDTLMISRTPEVTCVVVDVSHEDPEVKFNWYVDGVEVHNAKTKPREEQYNSTYRVVSVLTVLHQDWLNGKEYKCKVSNKALPAPIEKTISKAKGQPREPQVYTLPPSREEMTKNQVSLTCRVKGFYPSDIAVEWESNGQPENNYKTTPPVLKSDGSFFLASKLTVDKSRWQQGNVFSCSVMHEALHNHYTQKSLSLSPGK chain 2: not shown heavy: EVQLQESGPGLVKPSETLSLTCAVYGDSITSGYWNWIRKPPGKGLEYMGYISYTGSTYQNPSLKSRITFSRDTSKNQYYLKLSSVTAADTATYYCARSRAWIRTYFDYWGQGTLVTVSSASTKGPSVFPLAPSSKSTSGGTAALGCLVKDYFPEPVTVSWNSGALTSGVHTFPAVLQSSGLYSLSSVVTVPSSSLGTQTYICNVNHKPSNTKVDKRVEPKSCDKTHTCPPCPAPELLGGPSVFLFPPKPKDTLMISRTPEVTCVVVDVSHEDPEVKFNWYVDGVEVHNAKTKPREEQYNSTYRVVSVLTVLHQDWLNGKEYKCKVSNKALPAPIEKTISKAKGQPREPQVYTLPPSREEMTKNQVSLWCLVKGFYPSDIAVEWESNGQPENNYDTTPPVLDSDGSFFLYSDLTVDKSRWQQGNVFSCSVMHEALHNHYTQKSLSLSPGK light: EIVLTQSPDFQSVTPKEKVTITCSVSSSISSSNLHWYQQKPDQSPKLLIYGTSNLASGVPSRFSGSGSGTDFTLTINSLEAEDAATYYCQQWSSYPLTFGQGTKLEIKRTVAAPSVFIFPPSDEQLKSGTASVVCLLNNFYPREAKVQWKVDNALQSGNSQESVTEQDSKDSTYSLSSTLTLSKADYEKHKVYACEVTHQGLSSPVTKSFNRGEC | 3.11 nM | 336 nM | 15.7 nM | 3.72 nM | – | –
3 | R1042: PD-L1_VH_IL15RA/TIGIT_VL_IL15/TIGIT_VH/PD-L1-VL (bispecific antibody) chain 1: EVQLLESGGGLVQPGGSLRLSCAASGFTFSSYIMMWVRQAPGKGLEWVSSIYPSGGITFYADTVKGRFTISRDNSKNTLYLQMNSLRAEDTAVYYCARIKLGTVTTVDYWGQGTLVTVSSGGGGSGGGGSGGGGSGGGGSGITCPPPMSVEHADIWVKSYSLYSRERYICNSGFKRKAGTSSLTECVLNKATNVAHWTTPSLKCIRDPALVHQRPAPPSTVTTAGVTPQPESLSPSGKEPAASSPSSNNTAATTAAIVPGSQLMPSKSPSTGTTEISSHESSHGTPSQTTAKNWELTASASHQPPGVYPQGHSDTTEPRGPTIKPCPPCKCPAPNLLGGPSVFIFPPKIKDVLMISLSPIVTCVVVDVSEDDPDVQISWFVNNVEVHTAQTQTHREDYNSTLRVVSALPIQHQDWMSGKEFKCKVNNKDLPAPIERTISKPKGSVRAPQVYVLPPPEEEMTKKQVTLWCMVTDFMPEDIYVEWTNNGKTELNYDNTEPVLDSDGSYFMYSDLRVEKKNWVERNSYSCSVVHEGLHNHHTTKSFSRTPGK chain 2: not shown heavy: QVQLESEGGLFKPTDTLTLTCTVSGSSLSSSYMSWVRQAPGKGLEWIGIIGSNGNTYYANWAKGRFTISKTSTTVELKITSPTTEDTATYFCARGGYRTSGMDPWGPGTLVTVSSAKTTAPSVYPLAPVCGDTTGSSVTLGCLVKGYFPEPVTLTWNSGSLSSGVHTFPAVLQSDLYTLSSSVTVTSSTWPSQSITCNVAHPASSTKVDKKIEPRGPTIKPCPPCKCPAPNLLGGPSVFIFPPKIKDVLMISLSPIVTCVVVDVSEDDPDVQISWFVNNVEVHTAQTQTHREDYNSTLRVVSALPIQHQDWMSGKEFKCKVNNKDLPAPIERTISKPKGSVRAPQVYVLPPPEEEMTKKQVTLTCRVTDFMPEDIYVEWTNNGKTELNYKNTEPVLKSDGSYFMASKLRVEKKNWVERNSYSCSVVHEGLHNHHTTKSFSRTPGK light: QSALTQPASVSGSPGQSITISCTGTSSDVGGYNYVSWYQQHPGKAPKLMIYDVSNRPSGVSNRFSGSKSGNTASLTISGLQAEDEADYYCSSYTSSSTRVFGTGTKVTVLRTDAAPTVSIFPPSSEQLTSGGASVVCFLNNFYPKDINVKWKIDGSERQNGVLNSWTDQDSKDSTYSMSSTLTLTKDEYERHNSYTCEATHKTSTSPIVKSFNRNEC | – | – | – | – | 7.29 nM | –
4 | R0950: PD-L1_VH_IL15RA/PD-L1_VL_IL15/TIGIT-Fab (bispecific antibody) chain 1: EVQLLESGGGLVQPGGSLRLSCAASGFTFSSYIMMWVRQAPGKGLEWVSSIYPSGGITFYADTVKGRFTISRDNSKNTLYLQMNSLRAEDTAVYYCARIKLGTVTTVDYWGQGTLVTVSSGGGGSGGGGSGGGGSGGGGSGITCPPPMSVEHADIWVKSYSLYSRERYICNSGFKRKAGTSSLTECVLNKATNVAHWTTPSLKCIRDPALVHQRPAPPSTVTTAGVTPQPESLSPSGKEPAASSPSSNNTAATTAAIVPGSQLMPSKSPSTGTTEISSHESSHGTPSQTTAKNWELTASASHQPPGVYPQGHSDTTEPRGPTIKPCPPCKCPAPNLLGGPSVFIFPPKIKDVLMISLSPIVTCVVVDVSEDDPDVQISWFVNNVEVHTAQTQTHREDYNSTLRVVSALPIQHQDWMSGKEFKCKVNNKDLPAPIERTISKPKGSVRAPQVYVLPPPEEEMTKKQVTLWCMVTDFMPEDIYVEWTNNGKTELNYDNTEPVLDSDGSYFMYSDLRVEKKNWVERNSYSCSVVHEGLHNHHTTKSFSRTPGK chain 2: not shown heavy: QVQLESEGGLFKPTDTLTLTCTVSGSSLSSSYMSWVRQAPGKGLEWIGIIGSNGNTYYANWAKGRFTISKTSTTVELKITSPTTEDTATYFCARGGYRTSGMDPWGPGTLVTVSSAKTTAPSVYPLAPVCGDTTGSSVTLGCLVKGYFPEPVTLTWNSGSLSSGVHTFPAVLQSDLYTLSSSVTVTSSTWPSQSITCNVAHPASSTKVDKKIEPRGPTIKPCPPCKCPAPNLLGGPSVFIFPPKIKDVLMISLSPIVTCVVVDVSEDDPDVQISWFVNNVEVHTAQTQTHREDYNSTLRVVSALPIQHQDWMSGKEFKCKVNNKDLPAPIERTISKPKGSVRAPQVYVLPPPEEEMTKKQVTLTCRVTDFMPEDIYVEWTNNGKTELNYKNTEPVLKSDGSYFMASKLRVEKKNWVERNSYSCSVVHEGLHNHHTTKSFSRTPGK light: DIVMTQTPASVEVAVGGTVTIKCQASQSISSYLNWYQQKPGQPPKLLIYDALKLASGVPSRFSGSGSGTEYTLTISGVESADAATYYCQQEHSVGNVDNVFGGGTEVVVKRTDAAPTVSIFPPSSEQLTSGGASVVCFLNNFYPKDINVKWKIDGSERQNGVLNSWTDQDSKDSTYSMSSTLTLTKDEYERHNSYTCEATHKTSTSPIVKSFNRNEC | – | – | – | – | 0.903 nM | 0.571 nM
